This is an account of results in patent US20040071661A1.

This experiment concerns the target LCMV glycoprotein GP33-41 epitope presented by the histocompatibility molecules H-2D^b (LCMV virus; mouse (C57BL/6)) (UniProt P09991). Description: cell-based or functional assay.

“T receptor (TCR Vα2 Vβ8) specific for the GP33-41 epitope, on CD8 T lymphocytes of TCR-transgenic C57BL/6 mice” came in with a % CD44^hi effector - memory, of CD8+ TCR Vα2 T cells, 7 days after injection of H293-341-LCMV.GP particle supernatant (control H293-341: 37.6) of 63.9% and a CD44^lo (naïve), percent of CD8+ TCR Vα2 T cells, 7 days after injection of H293-341-LCMV.GP particle supernatant (control H293-341: 57.6) of 24.5%.
